Results published in PMC6188894.

biological target: VN-TFIIEβ (TFIIEβ fused to the N-terminal fragment of Venus, pCS2VNm9); test: BiFC; conditions: cell culture; pCAG-Cherry co-transfected as a control

Row | response | Substance
1 | 32% | VC-Antp (wild-type Antennapedia fused to the C-terminal fragment of Venus, pCS2VC155) (from UniProt P02833) H36R
2 | 29% | VC-Antp (wild-type Antennapedia fused to the C-terminal fragment of Venus, pCS2VC155) (from UniProt P02833) I32A
3 | 31% | VC-Antp (wild-type Antennapedia fused to the C-terminal fragment of Venus, pCS2VC155) (from UniProt P02833) I32L

biological target: VN-TFIIEβ (TFIIEβ fused to the N-terminal fragment of Venus, pCS2VNm9) (Drosophila); test: split reporter (BiFC, NanoBiT); BiFC with split Venus (VC and VN fusions) in co-transfected HEK293 cells, read 48 h after transfection by confocal microscopy; percent = Venus-fluorescent cells in one hundred mCherry-positive cells, three independent experiments; conditions: not given
Sequence (O96881 entry or part of it): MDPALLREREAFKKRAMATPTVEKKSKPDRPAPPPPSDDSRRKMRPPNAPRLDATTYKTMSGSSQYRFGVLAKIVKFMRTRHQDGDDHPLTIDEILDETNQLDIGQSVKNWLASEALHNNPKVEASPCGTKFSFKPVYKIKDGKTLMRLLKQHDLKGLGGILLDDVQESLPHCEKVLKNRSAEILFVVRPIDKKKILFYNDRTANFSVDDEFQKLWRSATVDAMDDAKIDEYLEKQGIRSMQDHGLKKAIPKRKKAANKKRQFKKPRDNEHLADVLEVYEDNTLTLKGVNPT

Row | percent of transfected (mCherry-positive) cells with BiFC signal | Substance
4 | 78% | VC-Antp (wild-type Antennapedia fused to the C-terminal fragment of Venus, pCS2VC155) (from UniProt P02833 1-378) (natural protein)
5 | 75% | VC-AntpHD (Antp homeodomain construct fused to the C-terminal fragment of Venus, pCS2VC155) (domain or fragment)
6 | 76% | VC-Antp^AAAA (Antp with the YPWM motif replaced with alanines) (from UniProt P02833 1-378) (natural protein)
7 | 13% | VC-Antp^I32L-H36R (natural protein)
8 | 74% | VC-AntpΔH1 (Antp with helix 1 of the HD deleted) (from UniProt P02833 1-378) (natural protein)
9 | 15% | VC-AntpΔH1-2 (Antp with helices 1 and 2 of the HD deleted) (from UniProt P02833 1-378) (natural protein)
10 | 26% | VC-AntpΔHD (Antp with the homeodomain deleted) (from UniProt P02833 1-378) (natural protein)

biological target: EXD (BiFC partner in HEK293 cells) (Drosophila) (UniProt P40427); test: as above; conditions: not given
UniProt P40427, sequence (P40427 whole entry): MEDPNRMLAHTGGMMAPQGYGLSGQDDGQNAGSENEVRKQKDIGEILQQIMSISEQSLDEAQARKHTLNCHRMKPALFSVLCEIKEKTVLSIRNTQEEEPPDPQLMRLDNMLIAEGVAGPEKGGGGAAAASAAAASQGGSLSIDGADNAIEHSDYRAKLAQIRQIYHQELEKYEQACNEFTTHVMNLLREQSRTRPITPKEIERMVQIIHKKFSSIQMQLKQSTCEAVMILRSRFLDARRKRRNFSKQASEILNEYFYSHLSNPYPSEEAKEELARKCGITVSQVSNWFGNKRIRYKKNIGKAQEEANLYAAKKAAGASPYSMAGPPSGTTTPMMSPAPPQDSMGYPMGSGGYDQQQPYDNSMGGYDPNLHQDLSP

Row | percent of transfected (mCherry-positive) cells with BiFC signal | Substance
11 | 79% | VC-Antp^I32A-H36A (in HEK293 cells) (natural protein)
